Experiment: HP-SEC as in Example 20; Fc:Fc self-oligomerization

| Substance | % multimeric (HP-SEC) | fraction oligomer (HP-SEC) |
| --- | --- | --- |
| IgG3-005-RGY | IgG3-005-RGY (37.8% multimeric) |  |
| IgG4-005-RGY | IgG4-005-RGY (84.4% multimeric) |  |
| IgG1-2F8-RGY (EGFR antibody 2F8 with E345R/E430G/S440Y) |  | IgG1-2F8-RGY (74.5%) |
| IgG1-7D8-RGY (CD20 antibody 7D8 with E345R/E430G/S440Y) |  | IgG1-7D8-RGY (67.2%) |
| IgG2-005-RGY (IgG2-005-E345R/E430G/S440Y) | IgG2-005-RGY (46.1% multimeric) |  |
